Reference: a protein production outcome set (Wang et al. 2014)

Assay: label from the status in PepcDB records

Sequence | protein production
MERIIQQTDYDALSCKLAAISVGYLPSSGLQRLSVDLSKKYTEWHRSYLITLKKFSRRAFGKVDKAMRSSFPVMNYGTYLRTVGIDAAILEFLVANEKVQVVNLGCGSDLRMLPLLQMFPHLAYVDIDYNESVELKNSILRESEILRISLGLSKEDTAKSPFLIDQGRYKLAACDLNDITETTRLLDVCTKREIPTIVISECLLCYMHNNESQLLINTIMSKFSHGLWISYDPIGGSQPNDRFGAIMQSNLKESRNLEMPTLMTYNSKEKYASRWSAAPNVIVNDMWEIFNAQIPESERKRLRSLQFLDELEELKVMQTHYILMKAQW | not failed
MERITDVPESPAQSADPARVNDYDSFAEAYSAETENNLVNAYYARPAMLALAGDVAGRRILDAGCGSGPLSAALRDRGAVVTGIDASAGMLALARRRLGDDVALHVVDLSDRLPFDDGAFDDVVASLVLHYLEDWGPTLAELRRVLRPGGRLIASVDHPFVAYTFQDPRPDYFATTSYTFDWTFNGQSVPMKFWRKPLHAMTDAFTTAGFRLSVISEPQPDPAAIELFPDAFHDLSTKTCFLFFVVEVPPSATGSDDY | failed
MERIVMPANYVHTRTTPFWTKETAPASIWRRHLDAGTRQGVYPRLCVMQGTIRYYGYADETSPEPVETLTIEAGQFGVFPPEKWHRIEALSDDTLFNVDFYVDPKILIEGLEHHHHHH | failed
MERNRRRNADNNTVVDQGGVFFDGCDTDEAFGPSSRDVPFQHDSVKSKPNLYGGG | not failed
MERRLAAILIADVVGYSRLSQIDEEGTRARFQADQNDVFEPAIERHHGRLVKTMGDGLLVEFQSVVDALRCAVEVQQLKATQSAASLPEHRLEFRIGINLGDIIVEGEDIQGDGVNIADRIQALAEPGGIAISGTTYDQVKSKIPVGFASLGEQRLKSITEPIRVYRILLDPTAAGKTLKTRRRLPRRRLVAGIAAAIVVLALAGAALWWQPWMPAKPPGPGERFAYPLPDRPSVAVLPFINVSGDSEHDHLAEGLTDDLITELSKVSGLFVIARHSVFAIQGSVGKIQDVATELGVQYVLEGTLQRAGPRLRINVKLIDAVSGLSLWAERYDRQYADLFAVQDDVIGKIISALSVKLSARERDQLARIPTENLEAYDFYMRAEQEGFILRDVDTYRRTLSFYQKAIDLDPGFANAHAGIARVAVDVWRNDYNYLWSAAVARKIAYDAAGQALKLDPNNARAHTVLALLQWVDGRETEAKNSANMAVAMEPNDAEAAANLALILVHTGSSGQAITEMEKALRLDPSPASSFQLLAGIVFYTAGDDQRAISLIEPTLDSLPKVEPAREYLAAAYADQGNETKAAAETAKLLELFPEGNLTYYGYLYDYWRDGDLQRHLAALRKAGIPEWPFGFTGSQADRLGEADLRNLVDGKSWTGKHKNGTDFTQYFDRAGNTAYRSANTNITGIVEVRGDSLCEKFEGYFLDRMVCGYVYRNTSGEQRDRPYVHVTPRALTFFSPTP | failed
MERSIGFGQALKLFWKNYVNFKGRSRRSEYWFMALWNIIFMMPALILYIIGLIMTVSGAASSSEELVAIGVILLFLSICYALIYSLATLIPGWALLIRRFHDTGRTMLMPLIYLGVIVISYPVLFVVNIQDPEYNNPVYIIFFAIIFLVYIALGIYMLVICCLDSERKTNKYGASHKYGNHIKSSTNTYANQDAPIHEDTNVKHVNSEENAFSEEVNTSDENATKKDDNFKY | failed
MERTLSDSQIRYIKARERRNLRGAQAFICLFLSLFVLILLQGVWLLISPRLACALLVPWAIFLWWWVFHRLKGQQSEVAARTQWLQGQFSATWVSSHRNGHFSYSFGDYPIAACCRLNNLFNEKRLDLHTRYRVEAALLTCSQTASHSYYLFGDTLVPVTRAPETDEQPGS | failed
MERVGTPEEERQAGPVLPTSLESDSSKRTSWGFLITGVVGGALLTVYAVATPFITPALRKVCLPFVPATSKQVENVVRMLRHRRGPLVDIGSGDGRIVIAAAKEGFPAVGYELNPWLVWYSRYRAWRAGVHGSAKFYISDLWKVTFAQYSNVVIFGVPQMMPQLEKKLELELEDGARVIACRFPFPRWTPDHTTGEGIDTVWAYDMSAQRGRGGRPNQEWVGQKNLSETAGLQASSSETRSKLLDVE | failed
MESDSEMVPFPQLPMPIENNYRACTIPYRFPSDDPKKATPNEISWINVFANSIPSFKKRAESDITVPDAPARAEKFAERYAGILEDLKKDPESHGGPPDGILLCRLREQVLRELGFRDIFKKVKDEENAKAISLFPQVVSLSDAIEDDGKRLENLVRGIFAGNIFDLAVKTWFHDHGSLMTWKTSKPNGSISLGRRSLICFALPFNASFRLQCLFSELKYTLNCSSSSSFPFKVVLAANELPSINDITCTELTEILSQLKDENGQLLGVDTSKLLIANSGNDLPVIDLSRVSQELAYLSSDADLVIVEGMGRGIETNLYAQFKCDSLKIGMVKHLEVAEFLGGRLYDCVFKFNEVQS | not failed
MESIWRIATGQDPSREDYEGIEFWSNPERSGWLTKQGDYIKTWRRRWFVLKRGKLLWFKDQAAAGIRGSTPRGVISVGDCLTVKGAEDVVNKPFAFELSSGSYTMFFIADNEKEKEEWINSIGRSIVQHSRSVTDSEVLDYDHRR | failed
MESKTNYTIVGLIVLILTAGLLSAGLWLSVGFNQKEYTSYTVYLKESVSGLSVESPVKFNGVQVGYVKEIKLNKNDPRQVELLLNIEKSTPITTSTSATLITQGITGVTYVGLSAGSSELTPLRKMPGEPYPVIPSKPSLLNQLDAVLKEVAENVGAVSEKAQLIFNEENADNVRKSLANLERITEIIADKGQTIDSSLNNLDVFVANMANASKQFPQLIKDLKTGISKFKSLADNMSAAGKDVSKTMIAGKNTIDQISQQAIPPAVILLRRLNAISANLEKVSNEMRQNPSVIIRGTKAPKLGPGELEHHHHHH | failed
MESLDSVSIAILLGSVLVMAGILSSLLALRFGAPLLLVFLVIGILAGESGPGGINFNDLGTTYLVGSVALALILFDGGLKTRFSSIKAVLAPSMGLATVGVLLTALVTAPVARYALDLSWVEALLASAVVASTDAAAVFLLVHAQGLRLRPRVGATLEVESGTNDPFAVFLTLMLVELITRGESSILHVLIEFVREAALGAVIGVVGGRVVVMALNRVALPQGLHAPFVTTAALVVFGAAQMSHASGFLAVYLAGMIIGNQPTRAHNSVVAFLDAATWLAQIVMFVLLGLLVSPQRLMGSIGPAVVIALALMLVARPLAVFICLAPFRFNWRERLFIAWVGLRGAVAIFLASIPMLVGLSKAYLYFDVAFVVVLISLMLQGWTLAPAARKLLVALPRSDRGPRRIELDLPGQLEQQLVGYAVRPKSLYLKRGLIPSWSKPTLVIRDQRILTPEEAEPVAPGDYVYLLAPPEKAAALDRFFVDMPPSTAPDPHLLGDFIVPGETSLGDLAAAYGISVPPGQEALTLADYFDIYLDQAPMVGATLPLDSIVLVARSLGGGRVNVVGLRLPEEEDEAPPPTRLAKVRTKLSEVWSLLAGV | failed
MESMSMNHRVVRHCHNKKLQQSRYSPYSKENIISTIEKEMQKDEAIRLGVELSLFVAETMVLLSDNLRSMLLFCLWVLTNAECTYFTDPVVGRLHCVMLYVLETYIKPKNGVYLADVKSNQWEVFVKSCKSFVFGIRELDRIVLILGKRESSSCEVVKTSDFEHCNQELKKLEETLRSAKDVSEANGFAREVIKSNILCLWKSLFETSQPKVINLKNRTLDMFKPLLNQAREITCSSLIASLHI | failed
MESSEEDDEYPFIESITPQSKIDSVHQSLTEKGIRKLCCELMDLKDAVENMCGDMRTKYLAFLRISEEAVEMEHELVELRKHISSQGILVQDLMAGVCREMDDWNRLPGDVHDAEVEEDPLPNEVTDPKSEFLEKIDLLLAEHKVDEALEAMDAEERSSPDLKGSVEMSSYKSAFMERKAVLEDQLLRIAKQPSICVAELKHALIGLIRLGKGPSAHQLLLKFYATSLRRRIEAFLPSCLTCPNTFPATLSKLVFSNISVATKESAAMFGDDDNPAYSNKVVQWAEREVEYLVRLVKENASPSETASALRAASICLQDCLNYCKVLEPQGLFLSKLFLVLFRPYVEEVLELNFRRARRVIFDLNETDEGLESPSDFVTILSEFAIASDTMMTDCSIRFMQIVQDILEQLTHLVVLHFGESVLTRILQLYDKYIDFLIKALPGHSDEDGLPELQDNTVLARAETDSEQLALLGAAFTILDELLPRSLVKVWKLQIENGGGEGENSAALNSSAAPELKEWKRHMVQAFDKLRNYFCLQFVLSFIYSREGLTRLDALIYLTETPDDLHLPSLPFQALFSKLQQLAIIAGDVLLGKEKLQKILLARLTETVIIWLSNEQEFWSAFEDESNPLQPSGLQQLILDMNFTVEIARFAGYPFKVVQNHASVVINRAINIFSERGINPQSSLPKTEWFTEAAKSAINRLLMGSEDASEPEEYECEEEEEDDHHIVLPEMDDDSDSEDTSSLSTVDSFESFASASMADLESPSFTDSES | failed
MESSPLISAGLPIALFIIMIGIGMTLTLRDFRQVAVYPKGMIVGTFAQILLMPVVAFGLAWLFGVSPAIAVGLVIIAACPGGTTSNLFVLLARGNIALSIVLTVSASLITILTLPLFTNMALQHFMGTEESISLPVGKTIAMLVVIVLLPVAIGMLVRTRKPELARKAESLVSIFGGIVLAVLVVALLYGVRDQMWDLLKQAGPSTIALNVAGIALGLLAGRVAGLTQRESLAVAVELGVKNGTIGLMVTLTLLESSTMSIPAAVYGVLMFPIGFLLAMYGRKVIPKSNVAHAAGEA | failed
MESVAFIQWCLEHLNYWTITLLMTIESSFIPFPSEVIIPPAAYKAAVNDELNIYLVVLFATIGADIGALINYYLAKWLGRPIIYKFANSRIGHMCLIDEAKVQHAESYFDKHGALSTFIGRLIPAVRQLISIPAGLARMKMHTFLLYTTIGAGLWNTILAVIGYYLSTVPGIESEEQLIAKVTEYSHEIGYCFIAIGIFIVGFLVYKGMKKK | failed
MESVTFEDVAVEFIQEWALLDSARRSLCKYRMLDQCRTLASRGTPPCKPSCVSQLGQRAEPKATERGILRATGVAWESQLKPEELPSMQDLLEEASSRDMQMGPGLFLRMQLVPSIEERETPLTREDRPALQEPPWSLGCTLPLLSLLLPSCPEPPLVLLDSSSAPDRHLGSTLDTEARGIP | failed
METAITRMLGIRYPIVAAPMFLVSNAPLLQAVAEAGGIGVIPSLNFRTHQAFREFLESFPEGVPFGVNLILKGNPRLEEDLEAVVERRVPLVVTSLGDPTRVVERVKAYGGVVWCDVVGLRHGRKAVEAGADALVAVACGAGGHAGRVSPFVLGPWLREELGVPVLIAGGIATGRQVLAALALGDGVYIGTRFIATLESGAPLEYKEALLRAQPEDIEYTPEVTGVPANFLRESLERFRQGGGKAWKEVYSAGHGVAFIREIPSAKEVVARLVEEYRAAKAGLP | failed
METALVSIIMPMYNAGKFLSKSIESVLEQTYQNWELLLIDDGSKDDSIDIALAFMEKDSRIFLLKNEQNMGIAKTRNKGIEASKGQYIAFLDSDDLWLPNKLEVQVKWMEEKKLLFTCSSYFVCNENGNITHERNFSEGPQTYQDLLKTNTIGCLTVVVESNLLKRHLMPDLKHEDYATWLNILKEINTVYFINEKLAIYRKLTTSTSSNKWNTISWVWKILRQNEQFSVIKSSFYLMRFLFYTTFKYAKNELEHHHHHH | not failed
METIKIGVVGLGTVGTGVVKMLQAHQEKISEITGRKLELACVVVHNLKKHEQVDLGDVQMTDQIATLLDDPSIQIMVEVMGSIHPAKEYITQALQAGKHVVTANKDLIAQYGRELVQIARENHRDLFYEASVAGGIPILRTIDNSFAADRIQRVMGIVNGTTNYIMTQMLTKHWSYDQALSSAQDLGFAESDPTNDVEGLDAAFKMIILTQFAFGMSLSLDHVQVQGITKISPEDIAEAHQLGYTIKLLGIAEEIDDRIAVSVGPVLVSDQHPLATVQNENNAVMVTGTAVGNTMFYGPGAGELPTANSVLSDITTVAKNIALNTTGNTFNSYRQETVLATPEDVVYPHFIALKMRDVPGMMMKLTAIMTRAEVSFSRIIQNQLGDGNARVVIITHAMNDQQLADITREIGEQENMQLLASYKVLKNA | failed
